Reference: publication PMC8263772
pKd: −log10 of the molar value.

Biological target: dog angiotensin-converting enzyme 2 (dACE2) ectodomain, 6xHis (dog)
Assay: SPR

Substance: SARS-CoV-2 spike (S) protein receptor binding domain (RBD), wild type (from UniProt P0DTC2) (domain or fragment)
- pKd: 6.91
